Here are results for eleven molecules from publication PMC9162458 (2022).

Where two headings read alike, the source gives them in different places. Ends that are not written are not given here.

First the molecules themselves.
B1: LiRAD51^ATPase (Leishmania infantum RAD51 ATPase domain, residues 134–386) (domain or fragment)
chain: EIIMVTTGSREVDKLLGGGIETGSITELFGEFRTGKTQLCHTLCVTCQLPISQGGAEGMALYIDTEGTFRPERLVAVAARYGLDPEDVLANVACARAFNTDHQQQLLLQASAMMAENRFALIVVDSATALYRTDYSGRNELAARQMHLGKFLRSLHNLAEEYGVAVVVTNQVVANVDGSAQMFQADSKKPIGGHIMAHASTTRLSLRKGRGEQRIIKVYDSPCLAEAEAIFGIYDDGVGDARD

Assay [1] deals with B1. In words: FP.
In assay [2] the target is B1. The experiment in a line: FP.
For assay [3], the target named is B1. The experiment in a line: FP.
The target in assay [4] is B1. The experiment in a line: ITC. For orientation: Isothermal titration calorimetry measures the heat released or taken up as one component is titrated into another.
Another assay concerns the target LiBRC1.6. In words: FP.
Another assay has as its target LiBRC1.5. In words: FP.
The next assay concerns the target LiBRC1.12. In words: FP.
A further assay concerns the target LiBRC1.4. In words: FP.

Regarding LVPTLFSTASGKPVTVRRESLQKVA (domain or fragment, not fully specified (N-terminus); also: GB1 fusion) [LiBRC1.8 (C-terminal truncation of LiBRC1, Glu133 also removed, GB1 fusion)], half-maximal inhibition in assay [1] (IC50) required 8800 nM.
For the molecule GB1-LVPTLFSTASGKPVTVRRESLQKVAERLGDLAA-His8 (domain or fragment) [GB1-LiBRC1-His8 (BRC repeat 1 of Leishmania infantum BRCA2 fused to GB1)], the IC50 (usually the point on the concentration scale where inhibition reaches its midpoint) in assay [2] amounted to 1570 nM.
Regarding LVPTLFSTASGKPVTVRRESLQKV (domain or fragment, not fully specified (N-terminus, C-terminus); also: GB1 fusion) [LiBRC1.9 (C-terminal truncation of LiBRC1, GB1 fusion)], in assay [3], the affinity, expressed as Kd, was 2630 nM. The molecule further returned a half-maximal inhibitory concentration (IC50) in assay [1] of 11000 nM.
Molecule LVPTLFSTASGKPVTVRRESLQKVAE (domain or fragment, not fully specified (N-terminus); also: GB1 fusion) [LiBRC1.7 (C-terminal truncation of LiBRC1, residues up to Arg134 removed, GB1 fusion)] had an IC50 in assay [1] of 1990 nM.
Same read-out and setting: in the case of AAAPPLVPTLFSTASGKPVTVRRESLQKVAERLGDLAA (domain or fragment, not fully specified (N-terminus); also: GB1 fusion) [LiBRC1.3 (LiBRC1 with extended termini, GB1 fusion)] it was 1670 nM.
In assay [4], GSLVPTLFSTASGKPVTVRRESLQKVAERLGDLAA [LiBRC1 free peptide] came in with a Ka of 1.54e+06 M⁻¹.
As to B1, the Kd (as a rule, the constant that tells how readily two partners part at equilibrium) with LiBRC1.6 is 1090 nM; with LiBRC1.5, 380 nM; in the assay with LiBRC1.12, more than 124000 nM; in the assay with LiBRC1.4, 410 nM.
In turn, LVPTLFSTASGKPVTVRRESLQKVAERLGDLAAPDME (domain or fragment, not fully specified (N-terminus); also: GB1 fusion) [LiBRC1.2 (LiBRC1 with extended termini, GB1 fusion)] yielded an IC50 in assay [1] of 1200 nM. That is a single-digit micromolar value.
In assay [1], LVPTLFSTASGKPVTVRRESLQK (domain or fragment, not fully specified (N-terminus); also: GB1 fusion) [LiBRC1.10 (C-terminal truncation of LiBRC1, Val131 also removed, GB1 fusion)] yielded an IC50 of 41000 nM.
Consider GB1-RVPTLFETGRGKAVTVQKRSLDKAEASMDSLEA-His8 (domain or fragment) [GB1-LiBRC2-His8 (BRC repeat 2 of Leishmania infantum BRCA2 fused to GB1)], for which the concentration for half-maximal inhibition (IC50) in assay [2] amounted to 55000 nM.
LVPTLFSTASGKPVTVRRESLQ (domain or fragment, not fully specified (N-terminus); also: GB1 fusion) [LiBRC1.11 (C-terminal truncation of LiBRC1 up until Gln129, GB1 fusion)] displayed a half-inhibitory concentration (IC50) in assay [1] of 36500 nM.
